B1: target 1 insU 3' of 12,insU 3' of 12 (mixed)
RNA 1: CACCCGUGCAAAAAUGCAGGGGUCUAAAACUGAGCGGAUAACCUCUCUAUGG
RNA 2: GGGAAUGGAUCCACAUCUACGAAUUCGUACCAUAGAGAGGUUUUAUCCGCUCACCGAGAUCGGAAGAGCACACGU
B2: target 1 A14U,G15A (mixed)
RNA 1: CACCCGUGCAAAAAUGCAGGGGUCUAAAACUGAGCGGAUAACCUCUCUAUGG
RNA 2: GGGAAUGGAUCCACAUCUACGAAUUCGUACCAUAGAAUGGUUAUCCGCUCACCGAGAUCGGAAGAGCACACGU
B3: target 2 MT 5'PFS GAG 3'PFS AGC (mixed)
RNA 1: CACCCGUGCAAAAUUGCAGGGGUCUAAAACCUUCUCCAAAUUGUUUCAUCCU
RNA 2: GGGAAUGGAUCCACAUCUACGAAUUCGAGAGGAUGAAACAAUUUGGAGAAGAGCAGAUCGGAAGAGCACACGU
B4: target 2 MT 5'PFS CAG 3'PFS CAA (mixed)
RNA 1: CACCCGUGCAAAAUUGCAGGGGUCUAAAACCUUCUCCAAAUUGUUUCAUCCU
RNA 2: GGGAAUGGAUCCACAUCUACGAAUUCCAGAGGAUGAAACAAUUUGGAGAAGCAAAGAUCGGAAGAGCACACGU
B5: target 2 MT 5'PFS GUA 3'PFS UGU (mixed)
RNA 1: CACCCGUGCAAAAUUGCAGGGGUCUAAAACCUUCUCCAAAUUGUUUCAUCCU
RNA 2: GGGAAUGGAUCCACAUCUACGAAUUCGUAAGGAUGAAACAAUUUGGAGAAGUGUAGAUCGGAAGAGCACACGU
B6: target 2 MT 5'PFS CGC 3'PFS AGU (mixed)
RNA 1: CACCCGUGCAAAAUUGCAGGGGUCUAAAACCUUCUCCAAAUUGUUUCAUCCU
RNA 2: GGGAAUGGAUCCACAUCUACGAAUUCCGCAGGAUGAAACAAUUUGGAGAAGAGUAGAUCGGAAGAGCACACGU
B7: target 2 MT 5'PFS CGA 3'PFS CUU (mixed)
RNA 1: CACCCGUGCAAAAUUGCAGGGGUCUAAAACCUUCUCCAAAUUGUUUCAUCCU
RNA 2: GGGAAUGGAUCCACAUCUACGAAUUCCGAAGGAUGAAACAAUUUGGAGAAGCUUAGAUCGGAAGAGCACACGU
B8: target 2 MT 5'PFS UAG 3'PFS UCC (mixed)
RNA 1: CACCCGUGCAAAAUUGCAGGGGUCUAAAACCUUCUCCAAAUUGUUUCAUCCU
RNA 2: GGGAAUGGAUCCACAUCUACGAAUUCUAGAGGAUGAAACAAUUUGGAGAAGUCCAGAUCGGAAGAGCACACGU
B9: target 2 MT 5'PFS GGA 3'PFS UAU (mixed)
RNA 1: CACCCGUGCAAAAUUGCAGGGGUCUAAAACCUUCUCCAAAUUGUUUCAUCCU
RNA 2: GGGAAUGGAUCCACAUCUACGAAUUCGGAAGGAUGAAACAAUUUGGAGAAGUAUAGAUCGGAAGAGCACACGU
B10: target 2 MT 5'PFS GAG 3'PFS CGG (mixed)
RNA 1: CACCCGUGCAAAAUUGCAGGGGUCUAAAACCUUCUCCAAAUUGUUUCAUCCU
RNA 2: GGGAAUGGAUCCACAUCUACGAAUUCGAGAGGAUGAAACAAUUUGGAGAAGCGGAGAUCGGAAGAGCACACGU
B11: target 2 MT 5'PFS CAG 3'PFS CAC (mixed)
RNA 1: CACCCGUGCAAAAUUGCAGGGGUCUAAAACCUUCUCCAAAUUGUUUCAUCCU
RNA 2: GGGAAUGGAUCCACAUCUACGAAUUCCAGAGGAUGAAACAAUUUGGAGAAGCACAGAUCGGAAGAGCACACGU
B12: target 2 MT 5'PFS GCC 3'PFS CUA (mixed)
RNA 1: CACCCGUGCAAAAUUGCAGGGGUCUAAAACCUUCUCCAAAUUGUUUCAUCCU
RNA 2: GGGAAUGGAUCCACAUCUACGAAUUCGCCAGGAUGAAACAAUUUGGAGAAGCUAAGAUCGGAAGAGCACACGU
B13: target 2 MT 5'PFS GGA 3'PFS UAC (mixed)
RNA 1: CACCCGUGCAAAAUUGCAGGGGUCUAAAACCUUCUCCAAAUUGUUUCAUCCU
RNA 2: GGGAAUGGAUCCACAUCUACGAAUUCGGAAGGAUGAAACAAUUUGGAGAAGUACAGAUCGGAAGAGCACACGU
B14: target 2 MT 5'PFS GAG 3'PFS CGC (mixed)
RNA 1: CACCCGUGCAAAAUUGCAGGGGUCUAAAACCUUCUCCAAAUUGUUUCAUCCU
RNA 2: GGGAAUGGAUCCACAUCUACGAAUUCGAGAGGAUGAAACAAUUUGGAGAAGCGCAGAUCGGAAGAGCACACGU
B15: target 2 MT 5'PFS UUG 3'PFS CGA (mixed)
RNA 1: CACCCGUGCAAAAUUGCAGGGGUCUAAAACCUUCUCCAAAUUGUUUCAUCCU
RNA 2: GGGAAUGGAUCCACAUCUACGAAUUCUUGAGGAUGAAACAAUUUGGAGAAGCGAAGAUCGGAAGAGCACACGU
B16: target 2 MT 5'PFS GAG 3'PFS CGU (mixed)
RNA 1: CACCCGUGCAAAAUUGCAGGGGUCUAAAACCUUCUCCAAAUUGUUUCAUCCU
RNA 2: GGGAAUGGAUCCACAUCUACGAAUUCGAGAGGAUGAAACAAUUUGGAGAAGCGUAGAUCGGAAGAGCACACGU
B17: target 2 MT 5'PFS GAG 3'PFS CGA (mixed)
RNA 1: CACCCGUGCAAAAUUGCAGGGGUCUAAAACCUUCUCCAAAUUGUUUCAUCCU
RNA 2: GGGAAUGGAUCCACAUCUACGAAUUCGAGAGGAUGAAACAAUUUGGAGAAGCGAAGAUCGGAAGAGCACACGU
B18: target 2 MT 5'PFS CGA 3'PFS CUA (mixed)
RNA 1: CACCCGUGCAAAAUUGCAGGGGUCUAAAACCUUCUCCAAAUUGUUUCAUCCU
RNA 2: GGGAAUGGAUCCACAUCUACGAAUUCCGAAGGAUGAAACAAUUUGGAGAAGCUAAGAUCGGAAGAGCACACGU
B19: target 2 MT 5'PFS GGA 3'PFS UAG (mixed)
RNA 1: CACCCGUGCAAAAUUGCAGGGGUCUAAAACCUUCUCCAAAUUGUUUCAUCCU
RNA 2: GGGAAUGGAUCCACAUCUACGAAUUCGGAAGGAUGAAACAAUUUGGAGAAGUAGAGAUCGGAAGAGCACACGU
B20: target 2 MT 5'PFS GGA 3'PFS UAA (mixed)
RNA 1: CACCCGUGCAAAAUUGCAGGGGUCUAAAACCUUCUCCAAAUUGUUUCAUCCU
RNA 2: GGGAAUGGAUCCACAUCUACGAAUUCGGAAGGAUGAAACAAUUUGGAGAAGUAAAGAUCGGAAGAGCACACGU
B21: target 2 MT 5'PFS CGA 3'PFS UUA (mixed)
RNA 1: CACCCGUGCAAAAUUGCAGGGGUCUAAAACCUUCUCCAAAUUGUUUCAUCCU
RNA 2: GGGAAUGGAUCCACAUCUACGAAUUCCGAAGGAUGAAACAAUUUGGAGAAGUUAAGAUCGGAAGAGCACACGU
B22: target 2 MT 5'PFS UUC 3'PFS ACC (mixed)
RNA 1: CACCCGUGCAAAAUUGCAGGGGUCUAAAACCUUCUCCAAAUUGUUUCAUCCU
RNA 2: GGGAAUGGAUCCACAUCUACGAAUUCUUCAGGAUGAAACAAUUUGGAGAAGACCAGAUCGGAAGAGCACACGU
B23: target 2 MT 5'PFS CAG 3'PFS CAG (mixed)
RNA 1: CACCCGUGCAAAAUUGCAGGGGUCUAAAACCUUCUCCAAAUUGUUUCAUCCU
RNA 2: GGGAAUGGAUCCACAUCUACGAAUUCCAGAGGAUGAAACAAUUUGGAGAAGCAGAGAUCGGAAGAGCACACGU
B24: target 2 MT 5'PFS ACC 3'PFS UCC (mixed)
RNA 1: CACCCGUGCAAAAUUGCAGGGGUCUAAAACCUUCUCCAAAUUGUUUCAUCCU
RNA 2: GGGAAUGGAUCCACAUCUACGAAUUCACCAGGAUGAAACAAUUUGGAGAAGUCCAGAUCGGAAGAGCACACGU
B25: target 2 MT 5'PFS GAG 3'PFS AGU (mixed)
RNA 1: CACCCGUGCAAAAUUGCAGGGGUCUAAAACCUUCUCCAAAUUGUUUCAUCCU
RNA 2: GGGAAUGGAUCCACAUCUACGAAUUCGAGAGGAUGAAACAAUUUGGAGAAGAGUAGAUCGGAAGAGCACACGU
B26: target 2 MT 5'PFS UUG 3'PFS CGC (mixed)
RNA 1: CACCCGUGCAAAAUUGCAGGGGUCUAAAACCUUCUCCAAAUUGUUUCAUCCU
RNA 2: GGGAAUGGAUCCACAUCUACGAAUUCUUGAGGAUGAAACAAUUUGGAGAAGCGCAGAUCGGAAGAGCACACGU
B27: target 2 MT 5'PFS CGA 3'PFS UUU (mixed)
RNA 1: CACCCGUGCAAAAUUGCAGGGGUCUAAAACCUUCUCCAAAUUGUUUCAUCCU
RNA 2: GGGAAUGGAUCCACAUCUACGAAUUCCGAAGGAUGAAACAAUUUGGAGAAGUUUAGAUCGGAAGAGCACACGU
B28: target 2 MT 5'PFS UUC 3'PFS ACA (mixed)
RNA 1: CACCCGUGCAAAAUUGCAGGGGUCUAAAACCUUCUCCAAAUUGUUUCAUCCU
RNA 2: GGGAAUGGAUCCACAUCUACGAAUUCUUCAGGAUGAAACAAUUUGGAGAAGACAAGAUCGGAAGAGCACACGU

Target: T1, EsCas13d, nuclease-dead (Eubacterium siraeum, UniProt B0MS50, R295A;H300A;R849A;H854A)
T1 sequence: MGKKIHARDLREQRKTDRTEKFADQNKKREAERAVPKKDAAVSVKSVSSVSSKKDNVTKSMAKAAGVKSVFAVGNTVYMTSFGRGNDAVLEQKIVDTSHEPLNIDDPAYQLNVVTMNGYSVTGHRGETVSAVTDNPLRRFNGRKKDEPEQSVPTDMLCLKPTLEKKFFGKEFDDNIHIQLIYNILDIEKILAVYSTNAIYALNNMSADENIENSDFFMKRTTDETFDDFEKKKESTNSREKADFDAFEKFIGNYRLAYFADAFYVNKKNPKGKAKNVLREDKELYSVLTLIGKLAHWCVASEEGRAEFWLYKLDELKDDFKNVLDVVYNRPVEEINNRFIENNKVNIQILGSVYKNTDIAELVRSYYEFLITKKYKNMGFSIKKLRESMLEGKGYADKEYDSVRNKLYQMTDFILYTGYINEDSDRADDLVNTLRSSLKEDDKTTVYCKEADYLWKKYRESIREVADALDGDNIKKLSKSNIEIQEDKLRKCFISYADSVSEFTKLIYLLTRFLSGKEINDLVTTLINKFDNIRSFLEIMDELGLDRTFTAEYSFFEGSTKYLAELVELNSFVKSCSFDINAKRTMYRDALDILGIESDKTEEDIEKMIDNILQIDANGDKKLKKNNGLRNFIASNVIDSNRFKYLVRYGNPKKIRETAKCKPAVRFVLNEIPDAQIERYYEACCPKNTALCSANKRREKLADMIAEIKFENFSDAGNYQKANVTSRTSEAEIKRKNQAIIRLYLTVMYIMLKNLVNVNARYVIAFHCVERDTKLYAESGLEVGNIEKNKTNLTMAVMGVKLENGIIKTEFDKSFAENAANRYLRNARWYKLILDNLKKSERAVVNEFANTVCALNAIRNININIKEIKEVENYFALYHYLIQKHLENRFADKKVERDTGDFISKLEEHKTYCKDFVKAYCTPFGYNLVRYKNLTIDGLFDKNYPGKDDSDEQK
Test: crRNA (strand 1, pre-loaded); Mg2+; 40 mM Tris-HCl pH 7.5, 150 mM NaCl, 6 mM MgCl2, 1 mM DTT, 0.1% Tween-20, 0.2 mg/ml BSA; 25 C; 10 min per concentration, then washed
Settings: tags: His6-TwinStrep-SUMO cleaved; N-terminal SNAP kept (SNAP-Surface 488); label: 3' end held by stalled T7 RNA polymerase

Row | Binder | Kd
1 | B1 | 10.1 ± 0.8 nM
2 | B2 | 64 ± 10 nM
3 | B3 | 5.7 ± 0.7 nM
4 | B4 | 6.6 ± 2.7 nM
5 | B5 | 15.2 ± 1.2 nM
6 | B6 | 4.3 ± 0.6 nM
7 | B7 | 8.3 ± 1.1 nM
8 | B8 | 7.9 ± 0.8 nM
9 | B9 | 9.1 ± 1.1 nM
10 | B10 | 5.8 ± 0.4 nM
11 | B11 | 5.6 ± 1.6 nM
12 | B12 | 11.7 ± 2.4 nM
13 | B13 | 16.1 ± 2.7 nM
14 | B14 | 6.4 ± 0.4 nM
15 | B15 | 11.4 ± 1 nM
16 | B16 | 9.4 ± 0.9 nM
17 | B17 | 4.9 ± 0.4 nM
18 | B18 | 8.3 ± 1.3 nM
19 | B19 | 8.7 ± 0.7 nM
20 | B20 | 5.6 ± 0.9 nM
21 | B21 | 9 ± 1.7 nM
22 | B22 | ~16 nM
23 | B23 | 7.2 ± 1.2 nM
24 | B24 | 5.5 ± 0.6 nM
25 | B25 | 9.1 ± 1.1 nM
26 | B26 | 15.9 ± 1.5 nM
27 | B27 | 9.2 ± 1.7 nM
28 | B28 | ~21 nM

From PMC10786891, “Massively parallel profiling of RNA-targeting CRISPR-Cas13d”
